Positions of bridges follow the written chain, without caps; N, C: chain ends. No end group written: not given here.
Legend:
[1] = target: T1, Flag-tagged soluble human Fas ligand (FasL-Flag) (human, UniProt P48023 103-281, limits assumed); assay: SPR (BIAcore), FasL-Flag immobilised, Kp7-6 in solution
T1 construct: Bought from Kamiya Biomedical; also called soluble FasL-Flag fusion protein; not shown: Flag tag
T1 sequence (looked up): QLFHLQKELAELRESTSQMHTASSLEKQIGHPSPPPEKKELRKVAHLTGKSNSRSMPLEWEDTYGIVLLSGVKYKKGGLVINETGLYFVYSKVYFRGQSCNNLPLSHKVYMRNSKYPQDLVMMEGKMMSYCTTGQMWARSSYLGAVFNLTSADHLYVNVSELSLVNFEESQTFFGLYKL
Experimental: (§1) The kinetics of binding of Kp7-6, which mediated the best inhibitory activity to FasL, was performed using surface plasmon resonance (BIAcore™) analysis. FasL-Flag was immobilized onto a sensor chip and various solutions containing different concentrations of Kp7-6 were passed over the surface. […] The koff value is considered as an important indicator in the development of therapeutics with biological activity (Benveniste, M. et al. Br J Pharmacol 104, 207-221 (1991); Yiallouros, I. et al. Biochem J 331, 375-379 (1998)), and generally correlates with potent biological effects. (Moosmayer, D. et al. J Interferon Cytokine Res 16, 471-477 (1996)). […] (Berezov, A. et al. J Med Chem 44, 2565-2574 (2001)).
(§2) Biosensor analysis. All experiments were carried out on a BIAcore 3000 instrument (Biacore A G, Uppsala, Sweden) at 25° C. using PBS, pH 7.4, containing 0.005% surfactant P20 (Biacore A G) as the running buffer. FasL-Flag, Fas-Fc or TNFRI-Fc was immobilized on research-grade CM5 sensor chips (Biacore AG) using standard N-ethyl-N-dimethylaminopropyl carbodiimid/N-hydroxysuccinimide coupling. Immobilization was performed in 10 mM sodium acetate buffer at pH 4.5 for FasL-Flag and Fas-Fc, and at pH 4.0 for TNFRI-Fc. After coupling, excess N-hydroxysuccinimide groups were inactivated with ethanolamine. […] Data were analyzed with the BIA evaluation 3.0 software (Biacore AG). […]

[2] = target: T2, human Fas extra cellular domain-IgGFc fusion protein (Fas-Fc) (human, UniProt P25445 26-173); assay: SPR (BIAcore 3000), Fas-Fc immobilised, Kp7-6 in flow
T2 construct: extracellular domain; Bought from Kamiya Biomedical; also called soluble Fas receptor; not shown: IgG Fc
T2 sequence (looked up): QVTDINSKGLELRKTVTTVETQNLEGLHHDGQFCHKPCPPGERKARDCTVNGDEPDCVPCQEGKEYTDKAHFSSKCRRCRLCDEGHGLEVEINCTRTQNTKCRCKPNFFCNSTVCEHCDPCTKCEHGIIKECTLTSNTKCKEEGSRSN
Experimental: (§3) To assess the specificity of Kp7-6 binding interaction, Fas, FasL and TNFα were immobilized on a sensor chip. Kp7-6 bound to FasL but not to TNFα, which indicates Kp7-6 bound to FasL specifically (FIG. 3B). Kp7-6 also bound to Fas (FIG. 3B). […] (Naismith, J. H. et al. Structure 4, 1251-1262 (1996)). […] No significant binding to TNF-R was detected.
(§4) Biosensor analysis. All experiments were carried out on a BIAcore 3000 instrument (Biacore A G, Uppsala, Sweden) at 25° C. using PBS, pH 7.4, containing 0.005% surfactant P20 (Biacore A G) as the running buffer. FasL-Flag, Fas-Fc or TNFRI-Fc was immobilized on research-grade CM5 sensor chips (Biacore AG) using standard N-ethyl-N-dimethylaminopropyl carbodiimid/N-hydroxysuccinimide coupling. Immobilization was performed in 10 mM sodium acetate buffer at pH 4.5 for FasL-Flag and Fas-Fc, and at pH 4.0 for TNFRI-Fc. After coupling, excess N-hydroxysuccinimide groups were inactivated with ethanolamine. For binding studies, about 1500 resonance units (RU) of FasL-Flag, Fas-Fc and TNFRI-Fc were coupled to the chips. Surface plasmon resonance (SPR) measurements were carried out at a flow rate of […]. Data were analyzed with the BIA evaluation 3.0 software (Biacore AG). The sensograms give values for the relative response in resonance units (RU) after background subtraction versus time in seconds. […]

[3] = target: T1, Flag-tagged soluble human Fas ligand …; assay: SPR (BIAcore), FasL-Flag immobilised, Kp7-6 in solution; ratio of rate constants
Experimental: as §1, §2

[4] = target: T3, Human recombinant TNF-receptor (I) extracellular domain-IgGFc fusion protein (TNFRI-Fc) (human, UniProt P19438 30-211); assay: SPR (BIAcore), target immobilised on sensor chip
T3 construct: extracellular domain; not shown: IgG Fc
T3 sequence (looked up): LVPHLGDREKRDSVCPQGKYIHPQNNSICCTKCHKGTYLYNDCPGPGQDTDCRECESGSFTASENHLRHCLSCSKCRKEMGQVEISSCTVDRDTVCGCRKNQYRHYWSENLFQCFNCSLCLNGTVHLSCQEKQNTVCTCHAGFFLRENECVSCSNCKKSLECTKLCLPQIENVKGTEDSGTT
Experimental: as §3, §4

[5] = target: T4, Human recombinant TNFα (human, UniProt P01375 77-233); assay: SPR (BIAcore 3000), TNFα immobilised, Kp7-6 in flow; peptide concentration not given
T4 construct: Bought from Roche Diagnostics
T4 sequence (P01375 77-233 limits assumed): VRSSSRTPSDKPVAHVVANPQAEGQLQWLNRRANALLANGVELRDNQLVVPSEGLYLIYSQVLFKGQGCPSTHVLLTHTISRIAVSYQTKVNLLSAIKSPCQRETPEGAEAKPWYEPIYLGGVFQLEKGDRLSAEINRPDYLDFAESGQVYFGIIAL

[6] = target: T1, Flag-tagged soluble human Fas ligand …; assay: solid phase ligand binding assay; peptide preincubated with FasL-Flag, inhibition of binding to immobilised Fas-Fc
Experimental: To compare the inhibitory activities of the Kp7 peptide series, dose-response studies were performed. The best activity was found with Kp7-6, which inhibited 50% of the FasL-Flag molecule binding to immobilized Fas-Fc at 150 μM (FIG. 2B).
Solid phase ligand binding assay. Fas-Fc fusion protein (250 ng/ml) diluted in PBS was immobilized onto 96 well ELISA plate (Costar, High Wycombe, UK) by incubating overnight at 4° C. After blocking with PBS containing 1% skim milk overnight at 4° C. and subsequent washing with PBS containing 0.05% Tween 20 (PBS-Tw), Flag-tagged soluble FasL (100 ng/ml)/peptide solution preincubated in PBS containing 1% skim milk for 1 h at 37° C. was added onto the Fas-Fc coated wells. After 2 h incubation at room temperature, the plate was washed with PBS-Tw, and anti-FLAG(M2)-HRP antibody 1:2500 in PBS containing 1% skim milk was added. After 1 h incubation at room temperature, the plate was washed with PBS-Tw, and the enzyme reaction was started by adding the substrate solution (0.1M sodium acetate buffer (pH 5.0) containing 100 μg/ml of TMBZ and 0.005% (v/v) H₂O₂) and stopped with 2N H₂SO₄. The absorbance at 450 nm was measured with an ELISA reader.

- koff [1]: 0.000765 s⁻¹
- binding result [2]: binds
- Kd [3]: 11.2 µM
- binding result [4]: no binding
- binding result [5]: no binding
- IC50 [6]: 150 µM
B1: Kp7-6 (peptide)
peptide: YCDEHFCY
modifications: disulfide 2-7
notes: Synthetic exocyclic peptide derived from the Kp7 loop of human Fas (91 CDEGHGL 97); also called Fas mimetic Kp7-6; exocyclic mimetic Kp7-6

From US20040132641A1 (University of Pennsylvania, published 2004)
